This passage reports Kd, koff and kon results from PMC11145553, “SORL1 is a receptor for tau that promotes tau seeding” (The Journal of Biological Chemistry, 2024).

Holding throughout (conditions): both partners purified
The target in assay [1] is T1, Phosphorylated 2N4R tau produced in SF9 cells (human, UniProt P10636-8 1-441, phosphorylated (hyperphosphorylated forms; intermediate tau phosphorylation state); sites not given).
T1 construct: also called 2N4R SF9; SF9 tau; source: SF9 cells (baculovirus), purified (boiled lysate, HisTrap)
Kind of assay: SPR; SORL1 VPS10 domain amine-coupled to a CM5 chip; tau in single cycle titrations (3.8-310 nM); 0.15 M NaCl, 0.05% Tween 20, 1 mM CaCl2 pH 7.4; equilibrium analysis (Req from a pseudo-first-order fit).

For assay [2], the target named is T1, Phosphorylated 2N4R tau produced in SF9 …. The assay can be described thus: SPR; SORL1 VPS10 domain amine-coupled to a CM5 chip; tau in single cycle titrations (3.8-310 nM); 0.15 M NaCl, 0.05% Tween 20, 1 mM CaCl2 pH 7.4; kinetic analysis, 1:1 fit, KD calculated from the kinetic parameters.
Assay [3] addresses T2, Recombinant human 2N4R tau (full-length tau), WT (human, UniProt P10636-8 1-441).
T2 construct: the His tag applies only to the in-house protein; The uptake assays used 125I-labeled R&D SP-495; also called monomeric tau; microtubule-associated protein tau; source: His-tagged, E. coli, purified, or bought: R&D Systems (SP-495)
The assay is described as above.

T2 sequence (P10636 other isoform, or with tags, fused parts or gaps): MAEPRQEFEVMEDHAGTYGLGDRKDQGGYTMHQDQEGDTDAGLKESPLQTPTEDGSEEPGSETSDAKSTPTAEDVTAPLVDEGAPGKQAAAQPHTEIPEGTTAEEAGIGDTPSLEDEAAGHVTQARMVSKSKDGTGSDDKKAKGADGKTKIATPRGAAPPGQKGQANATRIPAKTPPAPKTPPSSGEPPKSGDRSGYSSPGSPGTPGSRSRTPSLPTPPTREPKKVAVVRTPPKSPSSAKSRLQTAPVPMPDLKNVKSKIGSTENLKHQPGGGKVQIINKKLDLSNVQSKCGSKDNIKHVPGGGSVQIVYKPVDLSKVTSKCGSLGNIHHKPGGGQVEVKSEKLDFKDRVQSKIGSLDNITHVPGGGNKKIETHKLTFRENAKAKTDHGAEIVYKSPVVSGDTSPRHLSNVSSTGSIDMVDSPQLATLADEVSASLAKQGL
T1 sequence (P10636 other isoform, or with tags, fused parts or gaps): as above

B1: Recombinant human SORL1 VPS10 domain, aa 82 to 753 (domain or fragment, UniProt Q92673 82-753, looked up)
chain: SAALQPEPIKVYGQVSLNDSHNQMVVHWAGEKSNVIVALARDSLALARPKSSDVYVSYDYGKSFKKISDKLNFGLGNRSEAVIAQFYHSPADNKRYIFADAYAQYLWITFDFCNTLQGFSIPFRAADLLLHSKASNLLLGFDRSHPNKQLWKSDDFGQTWIMIQEHVKSFSWGIDPYDKPNTIYIERHEPSGYSTVFRSTDFFQSRENQEVILEEVRDFQLRDKYMFATKVVHLLGSEQQSSVQLWVSFGRKPMRAAQFVTRHPINEYYIADASEDQVFVCVSHSNNRTNLYISEAEGLKFSLSLENVLYYSPGGAGSDTLVRYFANEPFADFHRVEGLQGVYIATLINGSMNEENMRSVITFDKGGTWEFLQAPAFTGYGEKINCELSQGCSLHLAQRLSQLLNLQLRRMPILSKESAPGLIIATGSVGKNLASKTNVYISSSAGARWREALPGPHYYTWGDHGGIITAIAQGMETNELKYSTNEGETWKTFIFSEKPVFVYGLLTEPGEKSTVFTIFGSNKENVHSWLILQVNATDALGVPCTENDYKLWSPSDERGNECLLGHKTVFKRRTPHATCFNGEDFDRPVVVSNCSCTREDYECDFGFKMSEDLSLEVCVPDPEFSGKSYSPPVPCPVGSTYRRTRGYRKISGDTCSGGDVEARLEGELVPCP
notes: VPS10 domain of sortilin-related receptor 1 (SORL1), human, residues 82-753; also called vacuolar protein sorting 10 domain of SORL1; VPS10 peptide; source: bought: R&D Systems (9880-LA)
In the case of B1, the Kd (usually the concentration at which binding is half-saturated) is 95 nM in assay [1], 78 nM in assay [2] and 15 nM in assay [3]. For the same molecule, the koff (commonly the rate constant with which the complex falls apart) in assay [2] was 0.0061 s⁻¹; in assay [3], 0.41 s⁻¹. Further, the figures for the kon in assay [2] and in assay [3] were 85000 M⁻¹ s⁻¹ and 5e+07 M⁻¹ s⁻¹, respectively.
